The values below come from US20180155451A1 (published 2018).

First the molecules themselves.
B1: GpH7-A5/GpH7-B3 variant P331_07I/GpL16-k0 (antibody, human IgG1, kappa)
heavy 1: not shown
heavy 2: not shown
light: DIVMTQSPLSLPVTPGEPASISCQASESLVHSNRNTYLHWYLQKPGQSPQLLIYKVSNRFSGVPDRFSGSGSGTDFTLKISRVEAEDVGVYYCSQNTHVPPTFGQGTKVEIERTVAAPSVFIFPPSDEQLKSGTASVVCLLNNFYPREAKVQWKVDNALQSGNSQESVTEQDSKDSTYSLSSTLTLSKADYEKHKVYACEVTHQGLSSPVTKSFNRGEC
notes: He Ab: mutation in the GpH7-B3 H chain only; also called He Ab
B2: GpH7-A5/GpH7-B3 variant S337_08L/GpL16-k0 (antibody, human IgG1, kappa)
heavy 1: not shown
heavy 2: not shown
light: B1 light
notes: as for B1
B3: GpH7-A5/GpH7-B3 variant V266_04F/GpL16-k0 (antibody, human IgG1, kappa)
heavy 1: not shown
heavy 2: not shown
light: B1 light
notes: as for B1
B4: GpH7-A5/GpH7-B3 variant V266_06M/GpL16-k0 (antibody, human IgG1, kappa)
heavy 1: not shown
heavy 2: not shown
light: B1 light
notes: as for B1
B5: GpH7-A5/GpH7-B3 variant T335_04F/GpL16-k0 (antibody, human IgG1, kappa)
heavy 1: not shown
heavy 2: not shown
light: B1 light
notes: as for B1
B6: GpH7-A5/GpH7-B3 variant T335_18N/GpL16-k0 (antibody, human IgG1, kappa)
heavy 1: not shown
heavy 2: not shown
light: B1 light
notes: as for B1
B7: GpH7-A5/GpH7-B3 variant S267_06M/GpL16-k0 (antibody, human IgG1, kappa)
heavy 1: not shown
heavy 2: not shown
light: B1 light
notes: as for B1
B8: GpH7-A5/GpH7-B3 variant P331_10E/GpL16-k0 (antibody, human IgG1, kappa)
heavy 1: not shown
heavy 2: not shown
light: B1 light
notes: as for B1
B9: GpH7-A5/GpH7-B3 variant V266_10E/GpL16-k0 (antibody, human IgG1, kappa)
heavy 1: not shown
heavy 2: not shown
light: B1 light
notes: as for B1
B10: GpH7-A5/GpH7-B3 variant V266_13S/GpL16-k0 (antibody, human IgG1, kappa)
heavy 1: not shown
heavy 2: not shown
light: B1 light
notes: as for B1
B11: GpH7-A5/GpH7-B3 variant S267_03V/GpL16-k0 (antibody, human IgG1, kappa)
heavy 1: not shown
heavy 2: not shown
light: B1 light
notes: as for B1
B12: GpH7-A5/GpH7-B3 variant P331_20W/GpL16-k0 (antibody, human IgG1, kappa)
heavy 1: not shown
heavy 2: not shown
light: B1 light
notes: as for B1
B13: GpH7-A5/GpH7-B3 variant V266_15Y/GpL16-k0 (antibody, human IgG1, kappa)
heavy 1: not shown
heavy 2: not shown
light: B1 light
notes: as for B1
B14: GpH7-A5/GpH7-B3 variant V266_18N/GpL16-k0 (antibody, human IgG1, kappa)
heavy 1: not shown
heavy 2: not shown
light: B1 light
notes: as for B1
B15: GpH7-A5/GpH7-B3 variant V266_11K/GpL16-k0 (antibody, human IgG1, kappa)
heavy 1: not shown
heavy 2: not shown
light: B1 light
notes: as for B1
B16: GpH7-A5/GpH7-B3 variant V266_05P/GpL16-k0 (antibody, human IgG1, kappa)
heavy 1: not shown
heavy 2: not shown
light: B1 light
notes: as for B1
B17: GpH7-A5/GpH7-B3 variant V266_19Q/GpL16-k0 (antibody, human IgG1, kappa)
heavy 1: not shown
heavy 2: not shown
light: B1 light
notes: as for B1
B18: GpH7-A5/GpH7-B3 variant P331_15Y/GpL16-k0 (antibody, human IgG1, kappa)
heavy 1: not shown
heavy 2: not shown
light: B1 light
notes: as for B1
B19: GpH7-A5/GpH7-B3 variant V266_08L/GpL16-k0 (antibody, human IgG1, kappa)
heavy 1: not shown
heavy 2: not shown
light: B1 light
notes: as for B1
B20: GpH7-A5/GpH7-B3 variant S267_02A/GpL16-k0 (antibody, human IgG1, kappa)
heavy 1: not shown
heavy 2: not shown
light: B1 light
notes: as for B1
B21: GpH7-A5/GpH7-B3 variant V266_09D/GpL16-k0 (antibody, human IgG1, kappa)
heavy 1: not shown
heavy 2: not shown
light: B1 light
notes: as for B1
B22: GpH7-A5/GpH7-B3 variant S267_01G/GpL16-k0 (antibody, human IgG1, kappa)
heavy 1: not shown
heavy 2: not shown
light: B1 light
notes: as for B1
B23: GpH7-A5/GpH7-B3 variant S267_05P/GpL16-k0 (antibody, human IgG1, kappa)
heavy 1: not shown
heavy 2: not shown
light: B1 light
notes: as for B1
B24: GpH7-A5/GpH7-B3 variant P331_16H/GpL16-k0 (antibody, human IgG1, kappa)
heavy 1: not shown
heavy 2: not shown
light: B1 light
notes: as for B1
B25: GpH7-A5/GpH7-B3 variant S267_07I/GpL16-k0 (antibody, human IgG1, kappa)
heavy 1: not shown
heavy 2: not shown
light: B1 light
notes: as for B1
B26: GpH7-A5/GpH7-B3 variant V266_02A/GpL16-k0 (antibody, human IgG1, kappa)
heavy 1: not shown
heavy 2: not shown
light: B1 light
notes: as for B1
B27: GpH7-A5/GpH7-B3 variant V266_14T/GpL16-k0 (antibody, human IgG1, kappa)
heavy 1: not shown
heavy 2: not shown
light: B1 light
notes: as for B1
B28: GpH7-A5/GpH7-B3 variant S267_08L/GpL16-k0 (antibody, human IgG1, kappa)
heavy 1: not shown
heavy 2: not shown
light: B1 light
notes: as for B1
B29: GpH7-A5/GpH7-B3 variant V266_07I/GpL16-k0 (antibody, human IgG1, kappa)
heavy 1: not shown
heavy 2: not shown
light: B1 light
notes: as for B1
B30: GpH7-A5/GpH7-B3 variant S267_04F/GpL16-k0 (antibody, human IgG1, kappa)
heavy 1: not shown
heavy 2: not shown
light: B1 light
notes: as for B1
B31: GpH7-A5/GpH7-B3 variant S337_07I/GpL16-k0 (antibody, human IgG1, kappa)
heavy 1: not shown
heavy 2: not shown
light: B1 light
notes: as for B1
B32: GpH7-A5/GpH7-B3 variant V266_16H/GpL16-k0 (antibody, human IgG1, kappa)
heavy 1: not shown
heavy 2: not shown
light: B1 light
notes: as for B1
B33: GpH7-A5/GpH7-B3 variant S267_09D/GpL16-k0 (antibody, human IgG1, kappa)
heavy 1: not shown
heavy 2: not shown
light: B1 light
notes: as for B1

The first experiment concerns the target T1, FcγRIIb extracellular domain with C-terminal His tag (human, UniProt P31994 43-217).
T1 construct: extracellular domain; also called 2b; FcgRIIb; not shown: His tag at the C terminus
T1 sequence (looked up): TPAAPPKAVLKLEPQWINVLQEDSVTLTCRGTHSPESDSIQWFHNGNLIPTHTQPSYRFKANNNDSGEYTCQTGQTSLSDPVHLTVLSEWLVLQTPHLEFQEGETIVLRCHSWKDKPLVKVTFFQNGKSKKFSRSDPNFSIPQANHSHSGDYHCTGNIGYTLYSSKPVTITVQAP
In words: SPR (Biacore), relative binding, GpH7-A5/GpH7-B3/GpL16-k0 = 100. How it is done:
(§1) Analysis of interaction between objective antibody and the FcγR was carried out using Biacore T100 (GE Healthcare). HBS-EP+ (GE Healthcare) was used as the running buffer, and the measurement temperature was set to 25° C. Chips produced by immobilizing the antigen peptide by the amine coupling method to a Series S Sencor Chip CM5 (GE Healthcare), or alternatively, chips produced by allowing preliminarily biotinylated antigen peptides to interact with and immobilize onto a Series S Sensor Chip SA (certified) (GE Healthcare) were used. Antibodies of interest were captured onto an antigen peptide-immobilized chip, and allowed to interact to each FcγR diluted with running buffer. To regenerate and repeatedly use the chip, the antibodies captured on the chip were washed off by reacting 10 mM glycine-HCl, pH 1.5.
(§2) The FcγR-binding activity of each antibody was assessed primarily using as an indicator the FcγR-binding activity and dissociation constant for FcγR.
A general note: In SPR one partner is held on a chip, and binding of the other changes the refractive index at the surface.
For the molecule B1, the He/Con_2b is 114 % of control.

For the molecule B2, the He/Con_2b was 100 % of control.

For B3, the He/Con_2b is 57.6 % of control.

Turning to B4, the He/Con_2b was 251 % of control.

Turning to B5, the He/Con_2b is 103 % of control.

Take B6: the He/Con_2b was 102 % of control.

For B7, the He/Con_2b was 210 % of control.

Consider B8, for which the He/Con_2b was 116 % of control.

For B9, the He/Con_2b is 15.2 % of control.

Consider B10, for which the He/Con_2b is 54.4 % of control.

Take B11: the He/Con_2b is 192 % of control.

With B12, the He/Con_2b is 111 % of control.

With B13, the He/Con_2b is 49.4 % of control.

With B14, the He/Con_2b is 69.7 % of control.

Turning to B15, the He/Con_2b was 1 % of control.

With B16, the He/Con_2b is 0.4 % of control.

Regarding B17, the He/Con_2b is 89.2 % of control.

As for B18, the He/Con_2b was 114 % of control.

In the case of B19, the He/Con_2b is 236 % of control.

Turning to B20, the He/Con_2b is 243 % of control.

On to B21, for which the He/Con_2b is 10.1 % of control.

Consider B22, for which the He/Con_2b was 105 % of control.

On to B23, for which the He/Con_2b was 31.5 % of control.

With B24, the He/Con_2b is 116 % of control.

For the molecule B25, the He/Con_2b was 192 % of control.

For the molecule B26, the He/Con_2b was 81 % of control.

On to B27, for which the He/Con_2b was 82.3 % of control.

For the molecule B28, the He/Con_2b is 109 % of control.

For B29, the He/Con_2b was 152 % of control.

In the case of B30, the He/Con_2b was 48 % of control.

Consider B31, for which the He/Con_2b is 104 % of control.

As to B32, the He/Con_2b is 57.2 % of control.

In the case of B33, the He/Con_2b is 310 % of control.

A further experiment deals with T2, FcγRIIIa extracellular domain with C-terminal His tag (human, UniProt P08637 17-208).
T2 construct: extracellular domain; also called 3a; FcgRIIIa; not shown: His tag at the C terminus
T2 sequence (P08637 17-208): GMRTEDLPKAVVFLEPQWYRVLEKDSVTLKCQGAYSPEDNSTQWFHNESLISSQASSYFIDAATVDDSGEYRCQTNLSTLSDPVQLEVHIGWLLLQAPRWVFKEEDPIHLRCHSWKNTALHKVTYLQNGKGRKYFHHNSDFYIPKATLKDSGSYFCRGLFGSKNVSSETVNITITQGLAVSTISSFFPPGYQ
The experiment is described as above. How it is done:
as §1, §2
Turning to B1, the He/Con_3a was 66 % of control.

As to B2, the He/Con_3a was 96.9 % of control.

With B3, the He/Con_3a was 34.7 % of control.

Turning to B4, the He/Con_3a was 85.8 % of control.

B5: the He/Con_3a was 96 % of control.

As for B6, the He/Con_3a is 98.8 % of control.

With B7, the He/Con_3a is 66 % of control.

As for B8, the He/Con_3a was 75.1 % of control.

For the molecule B9, the He/Con_3a was 4.1 % of control.

In the case of B10, the He/Con_3a was 28.1 % of control.

As to B11, the He/Con_3a is 30.8 % of control.

As for B12, the He/Con_3a is 78.6 % of control.

Consider B13, for which the He/Con_3a was 14.5 % of control.

With B14, the He/Con_3a was 30.4 % of control.

Regarding B15, the He/Con_3a is -0.7 % of control.

On to B16, for which the He/Con_3a was -0.7 % of control.

Regarding B17, the He/Con_3a was 34.7 % of control.

In the case of B18, the He/Con_3a was 81.9 % of control.

Consider B19, for which the He/Con_3a was 118 % of control.

As to B20, the He/Con_3a is 150 % of control.

Turning to B21, the He/Con_3a is 2.7 % of control.

With B22, the He/Con_3a is 53.8 % of control.

For the molecule B23, the He/Con_3a was 15.7 % of control.

On to B24, for which the He/Con_3a was 80.2 % of control.

Regarding B25, the He/Con_3a was 25.2 % of control.

In the case of B26, the He/Con_3a is 57.4 % of control.

Turning to B27, the He/Con_3a is 39.4 % of control.

Take B28: the He/Con_3a is 19.5 % of control.

On to B29, for which the He/Con_3a is 114 % of control.

For B30, the He/Con_3a is 11 % of control.

With B31, the He/Con_3a was 94.8 % of control.

Take B32: the He/Con_3a was 21.3 % of control.

Consider B33, for which the He/Con_3a was 181 % of control.
